Experimental data published in US20260224676A1 (published 2026).

Biological target: Tau preformed fibrils (PFF) (UniProt P10636 2-758)
Assay: BLI

- Kd: 1.32 nM
B1: Bepranemab (antibody, V domains shown)
VH: EVQLQESGPGLVKPSETLSLTCTVSGFSLTSNDIAWIRQPPGKGLEWMGTIWTDGSTNYNTAVQSRVTISVDTSKNQFSLKLSSVTAADTAVYYCARHRLYYGAFDYWGQGTMVTVSS
VL: DIVMTQTPLSLSVTPGQPASISCRSSQSLEYSDGYTYLEWYLQKPGQSPQLLIYEVSNRFSGVPDRFSGSGSGTDFTLKISRVEAEDVGVYYCFQATHNPYTFGQGTKLEIK
